Experimental findings from paper PMC11358003, “A bispecific antibody approach for the potential prophylactic treatment of inherited bleeding disorders” (Nature Cardiovascular Research, 2024) are described below.

In experiment [1] the target is soluble extracellular fragment of TLT-1 (sTLT-1) (human) (UniProt Q86YW5). Description: SPR; Biacore 8K, 25 °C; biAb (0.5-4 nM) captured on immobilised anti-human IgG on a CM4 chip; FVIIa (0-4 nM) or sTLT-1 (0-60 μM) injected; 10 mM HEPES, 150 mM NaCl, 0.05% polysorbate 20, pH 7.4, 5 mM CaCl2, 1 mg/ml BSA; Langmuir 1:1 kinetics; n = 2.
Experiment [2] has as its target recombinant activated coagulation factor VII (Homo sapiens) (UniProt P08709). Description: SPR; Biacore 8K, 25 °C; biAb (0.5-4 nM) captured on immobilised anti-human IgG (CM4 chip); FVIIa (0-4 nM) or sTLT-1 (0-60 μM) injected; 10 mM HEPES, 150 mM NaCl, 0.05% polysorbate 20, pH 7.4, 5 mM CaCl2, 1 mg/ml BSA; Langmuir 1:1 kinetics model; n = 2.
Experiment [3] deals with soluble extracellular fragment of TREM-like transcript-1 (Homo sapiens (Human).) (UniProt Q86YW5). The experiment is described as above.
The target is the same in experiment [4]. The experiment is described as above. The source holds these as a separate data set.
For experiment [5], the target named is recombinant activated coagulation factor VII (rFVIIa, NovoSeven) (Homo sapiens) (UniProt P08709). Put plainly: SPR; Biacore 8K, 25 °C; FVIIa or FVII (2.5 nM) captured on immobilised anti-FVII IgG1 (against the Gla domain) on a CM4 chip; HMB-001 0-4 nM injected; 10 mM HEPES, 150 mM NaCl, 0.05% polysorbate 20, pH 7.4, 5 mM CaCl2, 1 mg/ml BSA; Langmuir 1:1 kinetics; n = 2.

Experiment [6] addresses recombinant zymogen FVII (Homo sapiens) (UniProt P08709). Described as above.
Experiment [7] concerns the target recombinant activated coagulation factor VII (Homo sapiens) (UniProt P08709). Description: SPR; Biacore 8K, 25 °C; FVIIa or FVII (2.5 nM) captured on immobilised anti-FVII IgG1 (CaFVII-22, against the Gla domain; CM4 chip); HMB-001 (0-4 nM) injected; 10 mM HEPES, 150 mM NaCl, 0.05% polysorbate 20, pH 7.4, 5 mM CaCl2, 1 mg/ml BSA; Langmuir 1:1 kinetics model; n = 2.

Experiment [8] has as its target recombinant zymogen FVII (Homo sapiens) (UniProt P08709). Described as above.
Experiment [9] deals with T1, recombinant activated coagulation factor VII (rFVIIa, NovoSeven) (Homo sapiens, UniProt P08709).
T1 construct: source: bought: NovoSeven, Novo Nordisk
Description: SPR; SPR binding assay of the monovalent control antibodies with their antigens; format not told. Conditions: both partners purified.

The target in experiment [10] is T2, active site-inhibited FVIIa:soluble TF complex (FVIIai:sTF) (human | , UniProt P08709;P13726, active site inhibited with H-D-Phe-Phe-Arg-chloromethyl ketone (FFR-cmk)).
T2 construct: as the light chain of m8: factor VIIa light chain without the N-terminal Gla domain; as the heavy chain of m8: factor VIIa heavy chain (protease domain); as m9: tissue factor, amino acids 1-219; also called FVIIa:sTF complex; source: FVIIai from CHO cells and sTF from Escherichia coli; SEC-purified together with the Fab; copies: + +
Description: crystal structure; SEC-purified Fab:FVIIai:sTF complex; sitting-drop vapor diffusion at 18 °C; 0.15 M CsCl, 15% PEG 3350; four complexes in the asymmetric unit. Conditions: both partners purified.

Experiment [11] has as its target T3, active site-inhibited FVIIa (FVIIai), prepared from FVIIa-desGLA (Homo sapiens, active site inhibited with H-D-Phe-Phe-Arg-chloromethyl ketone (FFR-cmk)).
T3 construct: source: CHO cells (CHO-EBNA), purified (VIISelect, desalted), then incubated with FFR-cmk
T3 chain 1: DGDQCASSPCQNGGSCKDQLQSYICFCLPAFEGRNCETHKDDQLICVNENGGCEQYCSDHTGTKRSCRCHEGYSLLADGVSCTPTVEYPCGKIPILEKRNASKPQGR
T3 chain 2: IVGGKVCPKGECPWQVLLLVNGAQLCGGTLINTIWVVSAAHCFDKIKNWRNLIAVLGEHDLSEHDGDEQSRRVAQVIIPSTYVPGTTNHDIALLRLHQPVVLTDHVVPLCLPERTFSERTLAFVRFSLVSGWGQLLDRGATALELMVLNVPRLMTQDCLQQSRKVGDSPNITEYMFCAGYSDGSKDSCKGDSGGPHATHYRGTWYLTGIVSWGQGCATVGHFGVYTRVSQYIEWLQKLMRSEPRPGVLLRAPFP
Described as above. Conditions: both partners purified.

Experiment [12] addresses T4, sTLT-1 stalk peptide (37-mer TLT-1 peptide) (human).
T4 construct: TREM-like transcript-1 (TLT-1), amino acids 111-147 of mature TLT-1; numbers count on: the mature protein; Amino acids 7-21 of the peptide are seen in the crystal structure; also called synthetic stalk peptide of TLT-1; source: synthetic peptide
T4 chain: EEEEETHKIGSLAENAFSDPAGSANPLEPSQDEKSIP
Put plainly: crystal structure; gel-filtrated 1:1 Fab-sTLT-1 stalk peptide complex; sitting-drop vapor diffusion at 18 °C; 1 M LiCl, 0.1 M Na citrate-citric acid pH 4.0, 20% PEG 6000; two complexes in the asymmetric unit. The conditions noted are these: both partners purified.

For experiment [13], the target named is T5, soluble extracellular fragment of TLT-1 (sTLT-1) (human, UniProt Q86YW5).
T5 construct: TREM-like transcript-1 (TLT-1), amino acids 1-147 of mature TLT-1 (IgV domain 1-110 and stalk 111-147); numbers count on: the mature protein; two amino acid (valine-aspartic acid) linker before the His tag, told in words; source: CHO cells (ExpiCHO), transient transfection, purified (HisTrap); not shown: His tag, C-terminal, kept
Description: SPR; SPR binding assay of the monovalent control antibodies with their antigens; format not told. The conditions noted are these: both partners purified.

Several values for one entry are separate records, joined by “and”; a condition that tells them apart may be missing. Equal values may be shown once. Read-outs that look alike come from different tables or passages of the source.

HMB-001 (bispecific antibody): the Kd in experiment [1] was 2300 pM; in experiment [2], 40 pM; in experiment [3] it was 2340 pM; in experiment [4], 2330 pM and 2350 pM; in [5] it was 370 pM; in experiment [6] it was 400 pM. In addition, the results for the Kd in experiment [7] and in experiment [8] were 370 pM and 400 pM, respectively. Further, the koff in experiment [2] is 0.000127 s⁻¹; in experiment [3] it was 0.000641 s⁻¹; in [4], 0.00061 s⁻¹ and 0.000672 s⁻¹; in experiment [7], 0.000664 s⁻¹ and 0.000665 s⁻¹ and 0.000666 s⁻¹; in experiment [8], 0.000725 s⁻¹. The kon in experiment [2] was 2.9e+06 M⁻¹ s⁻¹; in experiment [3], 274000 M⁻¹ s⁻¹; in experiment [4], 262000 M⁻¹ s⁻¹ and 286000 M⁻¹ s⁻¹; in [7], 1.8e+06 M⁻¹ s⁻¹; in [8], 1.83e+06 M⁻¹ s⁻¹ and 1.82e+06 M⁻¹ s⁻¹.

B1: monovalent control antibody with the FVIIa-binding arm of HMB-001 (antibody, V domains shown)
VH: QVQLQESGPGLVKPSQTLSLTCTVSGYSISSDSAWSWIRQPPGKGLEWIGYIQYSGSTNYNPSLKSRVTISRDTSKNQFSLKLSSVTAADTAVYYCARSVNYYGNSFAVGYWGQGTLVTVSS
VL: EIVLTQSPATLSLSPGERATLSCRASQGISDYLHWYQQKPGEAPRLLIKYTSQPATGIPARFSGSGSGTDFTLTISSLEPEDFAVYYCQNGHSFPLTFGQGTKLEIK
notes: as the heavy chain of the anti-FVIIa arm of m1; Fab part in PDB 8CN9; constant part as in PDB 5DK3 with the DuoBody mutations (EU numbering); as the light chain of the anti-FVIIa arm of m1; light chain of the Fab in PDB 8CN9; empty Fc, E216-G446 in EU numbering; About 100 kDa; also called anti-FVIIa cAb; monovalent cAb; source: DuoBody assembly of the parental anti-FVIIa antibody with an empty …
With B1, the binding result in experiment [9] is “binds”.

B2: anti-FVIIa Fab fragment of HMB-001 (Fab, V domains shown)
VH: B1 VH
VL: B1 VL
notes: Fab part of the heavy chain of the anti-FVIIa arm of m1; heavy chain of the Fab in PDB 8CN9; as the light chain of the anti-FVIIa arm of m1; light chain of the Fab in PDB 8CN9; also called anti-FVII Fab of HMB-001; source: HEK293 suspension cells (293Expi), transient transfection, purified (MabSelect SuRe)
In the case of B2, the binding result in experiment [10] and in experiment [11] was “binds” in each case.

B3: anti-TLT-1 Fab fragment of HMB-001 (Fab, V domains shown)
VH: EVQLVESGGGLVQPGGSLRLSCAASGFTFSRYWMTWVRQAPGKGLVWVGEINPDSSTINYAPSVKGRFTISRDNAKNTLYLQMNSLRAEDTAVYYCASGVFTSWGQGTLVTVSS
VL: DIVMTQTPLSSPVTLGQPASISCRSSQSLVHRQGNTYFHWLQQRPGQPPRLLIYKVSNRFSGVPDRFSGSGAGTDFTLKISRVEAEDVGVYYCSQSTHVPYTFGQGTKLEIK
notes: Fab part of the heavy chain of the anti-TLT-1 arm of m1; heavy chain of the Fab in PDB 8CHE; as the light chain of the anti-TLT-1 arm of m1; light chain of the Fab in PDB 8CHE; source: CHO cells, purified (KappaSelect)
Regarding B3, the binding result in experiment [12] is given as “binds”.

B4: monovalent control antibody with the TLT-1-binding arm of HMB-001 (antibody, V domains shown)
VH: B3 VH
VL: B3 VL
notes: as the heavy chain of the anti-TLT-1 arm of m1 (without DuoBody mutations); Fab part in PDB 8CHE; constant part as in PDB 5DK3; as the light chain of the anti-TLT-1 arm of m1; light chain of the Fab in PDB 8CHE; empty Fc, E216-G446 in EU numbering; About 100 kDa; also called anti-TLT-1 cAb; monovalent cAb; source: DuoBody assembly of the parental anti-TLT-1 antibody with an empty Fc; purified by …
Consider B4, for which the binding result in experiment [13] is given as “binds”.
